According to patent US20240059789A1 (Janssen / Centocor, published 2024):
Residue numbers refer to the chain shown, from its start.

B1: PSMB895 (antibody, human IgG1, lambda, L234A L235A, V domains shown)
VH: EVQLVESGGGLVQPGGSLRLSCAASGFTFSSYAMSWVRQAPGKGLEWVSAISGGIGSTYYADSVKGRFTISRDNSKNTLWLQMNSLRAEDTAVYYCAKDGVGATPYYFDYWGQGTLVTVSS
VL: QSVLTQPPSVSAAPGQKVTISCSGSSSNIGNNYVSWYQQLPGTAPKLLIYDNNKRPSGIPDRFSGSKSGTSATLGITGLQTGDEADYYCGTWDSSLSAYVFGTGTKVTVLG
B2: PSMB896 (antibody, human IgG1, lambda, L234A L235A, V domains shown)
VH: B1 VH
VL: B1 VL with N31I, Y99V, T103G, V107L
B3: PSMB897 (antibody, human IgG1, lambda, L234A L235A, V domains shown)
VH: B1 VH with I55S, W80Y, T91S
VL: B1 VL
B4: PSMB898 (antibody, human IgG1, lambda, L234A L235A, V domains shown)
VH: B1 VH with I55S, W80Y, T91S
VL: B1 VL with N31I, Y99V, T103G, V107L
B5: PSMB899 (antibody, human IgG1, lambda, L234A L235A, V domains shown)
VH: B1 VH with A23T, T28I, I55Y, S57A, T58P, S63T, W80Y, Y110D, T115I
VL: B1 VL with Y50F
B6: PSMB891 (antibody, human IgG1, lambda, L234A L235A, V domains shown)
VH: EVQLVESGGGVVQPGRSLRLSCAASGFTFITYGMHWVRQAPGKGLEWVAVVSFDESNKYYADSVKGRFTISRDNSKNTLYLQMNSLRAEDTAVYYCARALRDGNNWDYFNGMDVWGQGTTVTVSS
VL: not shown
B7: PSMB892 (antibody, human IgG1, lambda, L234A L235A, V domains shown)
VH: B6 VH
VL: QSVLTQPPSVSGAPGQRVTISCTGSSSNIGADYDVHWYQHLPGTAPKLLIYGNSNRPSGVPDRFSGSKSGTSASLAITGLQAEDETDYYCQSYDSSLSGWVFGGGTKLTVLG
B8: PSMB1069 (bispecific antibody, human IgG1, kappa, L234A L235A)
heavy: not shown
light: not shown
chain: QVQLVESGGGEVQPGRSLRLSCAASGFSFSGYGMHWVRQAPGKGLEWVAVMSYDGSNRFYVDSVRGRFSISRDNSKNTLYLQMNSLRPEDTAVYYCARDTVWGSHPDAFDIWGQGTVVTVSSGGSEGKSSGSGSESKSTGGSQSVLTQPPSVSVAPGQTARITCGGNNSGSKSVHWYQQKPGQAPVLVVYDDSDRPSGIPERFSGSNSGNTATLTISRVEAGDEADYYCQVWDSSSDHGVFGGGTKLTVLEPKSSDKTHTCPPCPAPEAAGGPSVFLFPPKPKDTLMISRTPEVTCVVVSVSHEDPEVKFNWYVDGVEVHNAKTKPREEQYNSTYRVVSVLTVLHQDWLNGKEYKCKVSNKALPAPIEKTISKAKGQPREPQVYVLPPSREEMTKNQVSLLCLVKGFYPSDIAVEWESNGQPENNYLTWPPVLDSDGSFFLYSKLTVDKSRWQQGNVFSCSVMHEALHNHYTQKSLSLSPG
notes: Null CD3 arm; one PSMA scFv; also called HC1 (ZWA): B23B62-Fab

The binders below were run against T1, Human PSMA on prostate cancer cell lines (C4-2B, 22RV1) (human, UniProt Q04609 1-750) (assay: flow cytometry on 22RV1 cells).
T1 construct: Endogenous PSMA of the human cell lines; also called PSMA+ cells; PSMA-expressing cell lines
T1 sequence (Q04609 whole entry): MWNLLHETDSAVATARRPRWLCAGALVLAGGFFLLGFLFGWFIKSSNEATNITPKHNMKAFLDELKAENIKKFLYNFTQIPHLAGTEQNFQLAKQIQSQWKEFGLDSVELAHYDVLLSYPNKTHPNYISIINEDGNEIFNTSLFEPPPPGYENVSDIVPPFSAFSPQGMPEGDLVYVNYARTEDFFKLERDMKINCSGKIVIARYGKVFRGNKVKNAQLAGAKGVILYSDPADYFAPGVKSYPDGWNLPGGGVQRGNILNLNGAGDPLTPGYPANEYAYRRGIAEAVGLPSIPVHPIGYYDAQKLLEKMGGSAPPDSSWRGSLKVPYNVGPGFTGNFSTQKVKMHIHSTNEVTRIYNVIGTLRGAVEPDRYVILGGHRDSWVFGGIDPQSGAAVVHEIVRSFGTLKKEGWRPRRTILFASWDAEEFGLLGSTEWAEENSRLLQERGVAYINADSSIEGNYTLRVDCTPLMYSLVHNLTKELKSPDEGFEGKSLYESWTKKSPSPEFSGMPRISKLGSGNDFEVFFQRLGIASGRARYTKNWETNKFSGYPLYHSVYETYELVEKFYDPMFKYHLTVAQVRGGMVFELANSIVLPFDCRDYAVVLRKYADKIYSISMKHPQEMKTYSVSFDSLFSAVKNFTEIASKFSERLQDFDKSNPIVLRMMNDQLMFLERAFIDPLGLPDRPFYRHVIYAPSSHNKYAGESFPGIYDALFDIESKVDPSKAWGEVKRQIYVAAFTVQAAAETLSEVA
Method: (§1) Selected anti-PSMA antibodies were evaluated for binding to commercial prostate cancer cell lines. C4-2B cells were originally developed at MD Anderson and are derived from LNCaP FGC grown in vivo and metastasize to bone marrow (Thalmann, et al 1994, Cancer Research 54, 2577-81). 22Rv1 cells are a human prostate carcinoma epithelial cell line derived from a xenograft that was serially propagated in mice after castration-induced regression and relapse of the parental, androgen-dependent CWR22 xenograft. 22RV1 and C4-2B cells were plated at 50,000 cells per well in 50 μl of assay medium (RPMI, 10% HI FBS) in V bottom plates. Serial dilutions of antibodies were prepared in assay medium with 50 μl of antibody dilutions added to the plates containing cells. The plates were incubated for 60 min at 37° C. at which time 100 μl of staining buffer (Becton Dickinson Cat #554657) was added to all wells of each plate. The plates were centrifuged at 300×G for 5 minutes and the medium was removed from the wells. 200 μl of staining buffer was added to all wells of each plate. The plates were centrifuged at 300×G for 5 minutes and the medium was removed from the wells. 50 μl of 2 μg/ml AlexaFluor647-labeled goat anti-human Fc was added to all wells of the plates and the plates were incubated for 30 minutes at 4° C. 150 μl of staining buffer was added to all wells of each plate. The plates were centrifuged at 300×G for 5 minutes and the medium was removed from the wells.

Binder	EC50
B1	1.71 nM
B2	1.24 nM
B3	2.26 nM
B4	2.07 nM
B5	1.02 nM
B6	0.554 nM

What follows are binders tested against T1, Human PSMA on prostate cancer cell … (assay: flow cytometry on C4-2B cells).
Method: as §1

Binder	EC50
B1	5.09 nM
B2	25.8 nM
B3	4.76 nM
B4	6.53 nM
B5	5.58 nM
B6	1.99 nM
B7	22.4 nM

What follows are binders tested against T1, Human PSMA on prostate cancer cell … (assay: flow cytometry on 22RV1 cells; 22RV1 cells).

Binder	EC50
B7	> 60 nM

Each binder was assayed against T2, Human PSMA ECD (Lys44-Ala750), N-6xHis (PSMW39) (human, UniProt Q04609 44-750) (assay: SPR Biacore 8K, mAb captured by anti-Fc, antigen in solution).
T2 construct: also called PSMW39.002; hu PSMA
T2 sequence (Q04609 other isoform, or with tags, fused parts or gaps): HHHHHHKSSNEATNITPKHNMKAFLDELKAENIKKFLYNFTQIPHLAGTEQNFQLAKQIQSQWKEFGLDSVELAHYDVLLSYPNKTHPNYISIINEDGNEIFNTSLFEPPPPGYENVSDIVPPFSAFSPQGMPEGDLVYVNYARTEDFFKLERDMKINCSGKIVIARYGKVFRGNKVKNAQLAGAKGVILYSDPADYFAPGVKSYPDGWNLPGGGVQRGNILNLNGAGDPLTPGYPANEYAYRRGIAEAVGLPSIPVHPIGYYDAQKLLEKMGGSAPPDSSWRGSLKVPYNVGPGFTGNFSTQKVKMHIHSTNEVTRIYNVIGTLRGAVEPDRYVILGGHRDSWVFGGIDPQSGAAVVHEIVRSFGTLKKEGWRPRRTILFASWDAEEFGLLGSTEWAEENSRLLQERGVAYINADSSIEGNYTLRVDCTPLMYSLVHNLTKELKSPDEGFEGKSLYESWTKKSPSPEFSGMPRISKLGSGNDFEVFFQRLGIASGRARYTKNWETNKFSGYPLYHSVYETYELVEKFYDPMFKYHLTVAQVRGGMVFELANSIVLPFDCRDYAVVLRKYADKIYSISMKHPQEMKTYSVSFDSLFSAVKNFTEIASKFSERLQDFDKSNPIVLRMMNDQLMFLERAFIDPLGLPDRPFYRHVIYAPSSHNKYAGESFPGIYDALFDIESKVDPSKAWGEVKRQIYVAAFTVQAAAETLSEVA
Method: (§2) The association and dissociation were monitored for 3 and 15 minutes, respectively, using a flow rate of 50 μL/min. Raw binding data was referenced by subtracting the analyte binding signals from blanks and analyzed using a 1:1 Langmuir binding model using the Biacore Insight evaluation software to obtain the kinetics, which were used to calculate the binding affinity. The anti-PSMA were captured using an anti-human Fc antibody and the antigens were injected in solution.

Binder	Kd
B1	0.704 nM
B2	≤ 0.0876 nM
B3	1.28 nM
B4	0.333 nM
B5	0.132 nM
B6	≤ 0.253 nM
B7	3.22 nM

Target: T3, Avi-6xHis-GS-cyno PSMA ECD (PSMW1) (Macaca fascicularis, UniProt Q04609 48-750 (human entry))
T3 construct: also called PSMW1.009; cy PSMA
T3 chain: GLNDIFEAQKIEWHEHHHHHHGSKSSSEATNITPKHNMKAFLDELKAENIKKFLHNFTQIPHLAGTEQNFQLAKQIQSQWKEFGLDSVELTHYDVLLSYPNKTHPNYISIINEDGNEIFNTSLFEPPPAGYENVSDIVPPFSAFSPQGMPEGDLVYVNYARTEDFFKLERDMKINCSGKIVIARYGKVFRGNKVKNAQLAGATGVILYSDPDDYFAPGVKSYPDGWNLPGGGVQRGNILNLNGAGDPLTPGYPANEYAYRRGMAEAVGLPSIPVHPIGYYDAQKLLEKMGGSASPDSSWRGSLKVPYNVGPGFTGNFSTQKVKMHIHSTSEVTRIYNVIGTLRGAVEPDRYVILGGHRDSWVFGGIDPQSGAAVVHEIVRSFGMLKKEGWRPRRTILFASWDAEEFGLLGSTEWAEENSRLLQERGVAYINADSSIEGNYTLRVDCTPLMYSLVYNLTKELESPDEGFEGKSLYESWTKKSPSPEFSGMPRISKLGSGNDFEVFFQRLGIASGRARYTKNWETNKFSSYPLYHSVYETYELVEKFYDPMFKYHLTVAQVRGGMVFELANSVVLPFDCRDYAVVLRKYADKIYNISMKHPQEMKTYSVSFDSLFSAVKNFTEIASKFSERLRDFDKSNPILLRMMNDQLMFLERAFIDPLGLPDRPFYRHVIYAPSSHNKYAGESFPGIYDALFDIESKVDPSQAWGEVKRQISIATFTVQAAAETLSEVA
Assay: as above
Method: as §2

Binder	Kd
B1	2.83 nM
B2	0.658 nM
B3	3.93 nM
B4	1.19 nM
B5	1.47 nM
B6	≤ 0.21 nM
B7	5.67 nM

What follows are binders tested against Avi-6xHis-GS-mouse PSMA (45-752) (PSMW29) (Mus musculus, UniProt O35409 45-752) in the same assay as above.
Method: as §2

Binder	Kd
B2	1.36 nM
B7	0.404 nM

The binders below were run against T1, Human PSMA on prostate cancer cell … (assay: binding curves on C4-2B cells, 37 C, 1 h incubation, four-parameter fit).
Method: Molecule concentrations ranged from 500-0 nM over 12-points at 3-fold dilution. […] Values reported in the Table 32 were generated by fitting the data to a four-parameter function for ligand binding generating values for y-min, y-max, EC50, and Hill. EC90 were calculated using the equation EC90=(90[…](100−90))\hat{ }(1/Hill)*EC50.

Binder	fold binding signal (Y-max) over the average of the molecules
B8	2 fold
